The record followed here is patent publication US20160032001A1 (APEXIGEN, published 2016).

The EC50 is the concentration giving half of the maximal effect. A lower EC50 goes with an effect from little substance. The term IC50 denotes the concentration that gives 50% inhibition. The low end stands for greater potency in that assay, the high end for weaker potency in that assay. In general, Kd refers to the concentration at which binding is half-saturated. The term koff denotes a measure of how fast the partners let go of each other. Usually kon stands for the rate constant with which the complex forms. Low readings indicate slow association, high ones fast association.

Test [1] has as its target T1, RANKL expressed on the surface of 293 cells (UniProt O14788 1-317, limits assumed).
T1 construct: whole, on cells; also called RANKL-transfected 293 cells; cells expressing RANKL
T1 sequence (looked up): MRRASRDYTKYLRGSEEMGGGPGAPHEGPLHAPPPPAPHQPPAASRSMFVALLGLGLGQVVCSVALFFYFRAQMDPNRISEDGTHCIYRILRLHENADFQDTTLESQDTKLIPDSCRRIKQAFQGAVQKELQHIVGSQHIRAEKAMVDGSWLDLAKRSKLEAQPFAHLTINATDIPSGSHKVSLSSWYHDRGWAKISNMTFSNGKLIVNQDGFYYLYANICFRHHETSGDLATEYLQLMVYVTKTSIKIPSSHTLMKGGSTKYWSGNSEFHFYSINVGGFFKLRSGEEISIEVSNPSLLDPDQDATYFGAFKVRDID
Put plainly: flow cytometry (MFI) on RANKL-transfected 293 cells.

Test [2] concerns the target T2, human RANKL protein (human, UniProt O14788 140-317, limits assumed).
T2 sequence (looked up): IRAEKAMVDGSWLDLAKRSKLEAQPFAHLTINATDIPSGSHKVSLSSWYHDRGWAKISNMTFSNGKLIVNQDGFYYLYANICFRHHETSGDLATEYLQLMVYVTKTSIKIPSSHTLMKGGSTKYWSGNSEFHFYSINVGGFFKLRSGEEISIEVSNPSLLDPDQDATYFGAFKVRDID
The test can be described thus: competition ELISA: RANKL (0.5 ug/ml) pre-incubated with the antibody, then binding to coated human RANK (8 ug/ml) detected; blocked partner RANK. (In general: ELISA stands for enzyme-linked immunosorbent assay.)

For test [3], the target named is T1, RANKL expressed on the surface of 293 …. The test can be described thus: flow cytometry (MFI) on RANKL-transfected 293 cells. This is another data set of the same source. For orientation: In flow cytometry, cells or beads pass a laser one at a time.
Test [4] deals with T2, human RANKL protein. The test can be described thus: competition ELISA: RANKL (0.5 ug/ml) pre-incubated with the antibody, then binding to coated human RANK (8 ug/ml) detected; blocked partner RANK. This is another data set of the same source.
Test [5] deals with T2, human RANKL protein. Described as above. This is another data set of the same source.
For test [6], the target named is T1, RANKL expressed on the surface of 293 …. Put plainly: flow cytometry (MFI) on RANKL-transfected 293 cells. This is another data set of the same source.
Test [7] has as its target T2, human RANKL protein. The test can be described thus: cell-based or functional assay.
In test [8] the target is T2, human RANKL protein. Put plainly: surface plasmon resonance. A general note: SPR reads the build-up and loss of mass on a sensor chip optically.

Like-named read-outs stand apart in the source and are kept apart here.

B1: clone 299 rabbit anti-RANKL antibody (antibody, V domains shown)
VH: QSLEESGGRLVTPGTPLTLTCTVSGIDLSSSLMTWVRQAPGKGLEWIGYIWSGGAPFYASWAKGRFTISKTSSTTVDLKMTSLTTEDTATYFCAARYTDSGFDALDPWGPGTLVTVSS
VL: DMTQTPASVEAAVGGTVTIKCQASQSIGSYLSWYHQKPGQPPKLLIYRASTLASGVPSRFKGSGSGTQFTLTISDLECADAATYYCQQGYSANVDNAFGGGTEVVVK
With B1, in test [1], the EC50 stood at 0.207 µg/mL. This molecule had an IC50 in the test with human RANKL protein [2] of 0.0907 µg/mL.

B2: clone 7 rabbit anti-RANKL antibody (antibody, V domains shown)
VH: QEQLKESGGGLVTPGGTLTLTCTASGFSLTTNGMSWVRQAPGKGLEWIGYIYSGGSPYYANWAKGRFTISKTSSTTVDLKMTSLTTEDTATYFCARHLSGGGWYLDIWGPGTLVTVSL
VL: DMTQTPASVEVAVGGTVTINCQASQNIGSNLAWYQQKPGQPPKLLIYGASTLASGVSSRFKGSGSGTQFTFTISDVECTDPATYYCQQAYSISNVDNPFGGGTEVVVK
In test [3], B2 had an EC50 of 0.248 µg/mL. This molecule showed a concentration for half-maximal inhibition (IC50) with human RANKL protein [4] of 0.0699 µg/mL.

B3: clone 379 rabbit anti-RANKL antibody (antibody, V domains shown)
VH: QEQLKESGGGLVTPGGTLTLTCTASRFSLINIGMSWVRQAPGRGLEWIGYIYSGGSPYYANWAKGRFTISRTSTTVDLKMTSLTTEDTATYFCARHASDGGWYLDIWGPGTLVTVSL
VL: DMIQTPASVEVAVGGTVTINCQASQSIGSNLAWYQQKPGQPPKLLIYLASTLPSGVPSRFKGSGSGTQFTFTISDVECTDAATYYCQQAYTASNVDNAFGGGTEVVVK
On to B3, for which, in test [1], the EC50 was found to be 0.221 µg/mL. The molecule further yielded an IC50 with human RANKL protein [2] of 0.0614 µg/mL.

B4: clone 246 rabbit anti-RANKL antibody (antibody, V domains shown)
VH: QSVKESGGGLVTPGGTLTLTCTASGLSLSGNGMSWVRQAPGKGLEWIGYIYSGSSPYYASWAKGRFTISKTSSTTVDLKMTSLTTEDTATYFCARHTSGGGWYLDIWGPGTLVTVSL
VL: DMIQTPASVEVAVGGTVTINCQASQSIGSNLAWYQQKPGQPPKLLIYSASTLASGVSSRFKGSGSGTDYTLTISDVECTDAATYYCQQAYSISNVENPFGGGTEVVVK
For the molecule B4, the response in test [1] was half-maximal at 1 µg/mL (EC50). For the same molecule, in the test with human RANKL protein [5], the IC50 was 0.486 µg/mL.

B5: clone 318 rabbit anti-RANKL antibody (antibody, V domains shown)
VH: QDQLKESGGGLVTPGGTLTLTCTASGFSLGSNGMSWVRQAPGKGLEWIGYIYSGSSPYYASWAKGRFTISKTSSTTVDLKMTSLTTEDTATYFCAGHAKGGGWYLDIWGPGTLVTVSL
VL: DMTQTPASVSAAVGGTVTINCQASQSIGSNLGWYQQKPGQPPKLLIYGASTLASGVSSRFKGSGSGTHFAFTISDVECTDAATYYCQQAYSVGNVDNAFGGGTEVVVK
Molecule B5 displayed an EC50 in test [1] of 0.164 µg/mL. In the test with human RANKL protein [2], this molecule gave an IC50 of 0.0624 µg/mL.

B6: clone 565 rabbit anti-RANKL antibody (antibody, V domains shown)
VH: QEDLKESGGGLITPGGTLTLTCTGSGFSLSSDGMSWVRQAPGKGLEWIGYIYSGSSPYYANWAKGRFTISKTSSTTVDLKMTSLTTEDTATYFCARHLSGGGWYLDIWGPGTLVTVSL
VL: DMIQTPASVSEPVGGTVTINCQASQNIGSNLAWYQQKPGQPSKLLIYKASTLASGVPSRFKGSGSGTDFTLTISDLECADAATYYCQQAYTISNVDNAFGGGTEVVVK
For B6, the EC50 in test [6] was determined as 0.0831 µg/mL.

B7: clone 238 rabbit anti-RANKL antibody (antibody, V domains shown)
VH: QEQLKESGGGLVTPGGTLTLTCTASGFSLNTNAMSWVRQAPGKGLEWIGYIYSGGSPYYANWAKGRFTISRTSTTVHLKMTSLTTEDTATYFCASHTSGGGWYLDIWGPGTLVTVSL
VL: DMIQTPASVEVAVGGTVTINCQASQNIGSNLAWYQQKPGQPPKLLIYGTSTLASGVSSRFKGSGFGTQFTFTISDVECTDAATYYCQQAYSTSKIDNAFGGGTEVVVK
In turn, B7 returned an EC50 in test [1] of 0.2 µg/mL. The same molecule showed an IC50 with human RANKL protein [5] of 0.0596 µg/mL.

B8: clone 68 rabbit anti-RANKL antibody (antibody, V domains shown)
VH: QEQLKESGGGLVKPDESLTLTCTASGFSLSSNGMSWARQAPGKGLEWIGYIYAGSSPYYANWAKGRFTISKTSSTTVDLKVTSLTTEDTATYFCARHASGGGWYLAIWGPGTLVTVSL
VL: DMIQTPASVEVAVGGTVTIGCQASQSIGSNLGWYQQKPGQPPKLLIYSASTLASGVSSRFKGSGSGTEFTLTISDVECDDAATYYCQQAYSVSNVDNAFGGGTEVVVK
B8 had an EC50 in test [3] of 0.185 µg/mL. The molecule further displayed an IC50 with human RANKL protein [4] of 0.0766 µg/mL.

B9: clone 91 rabbit anti-RANKL antibody (antibody, V domains shown)
VH: QSLEESGGRLVKPDETLTLTCTVSGSSLYNYEINWVRQAPGKGLEWIGYIDVGSGTWYASWAKGRFTISKTSTTVDLKITSPTTEDTATYFCTRKYNPMDLWGPGTLVTVSS
VL: DMTQTPASVEVAVGGTVTIKCQASQNIGSNLAWYQQKPGQPPKLLIYSTSTVASGVPSRFKGSGFGTQFTLTISGVQCDDAATYYCQQGYSAGNVNNPFGGGTEVVVK
As for B9, the “IC50 in a RAW cell assay (TRAP activity, OD 405 nM)” value with human RANKL protein [7] is 0.00488 µg/mL. In the test with human RANKL protein [8], this molecule displayed a Kd of 0.589 nM, a koff of 0.000273 s⁻¹ and a kon of 464000 M⁻¹ s⁻¹. The same molecule registered an EC50 in test [3] of 0.0664 µg/mL. Also, the IC50 with human RANKL protein [4] amounted to 0.0645 µg/mL.

B10: clone 37 rabbit anti-RANKL antibody (antibody, V domains shown)
VH: QSVEESGGRLVTPGTPLTLTCTVSGFSLSNDVMSWVRQAPGKGLEWIGYIWSGGSPYYANWAKGRFTISKSSSTTVDLKITSPTTEDTAAYFCARGFGSSGLNIWGPGTLVTVSL
VL: DMTQTPASVEVAVGGTVTIKCQASQSIGSNLAWYQQKPGQSPKLLIYSASILASGVPSRFKGSGSGTQFTLTISGVQCDDAATYYCQQGYSVGNIDNAFGGGTEVVVK
B10 showed an EC50 in test [3] of 0.137 µg/mL. In the test with human RANKL protein [4], this molecule registered an IC50 of 0.0436 µg/mL.

B11: clone 256 rabbit anti-RANKL antibody (antibody, V domains shown)
VH: QSLEESGGRLVTPGTPLTLTCTVSGFSLSKYEINWVRQAPGKGLEWIGYIDVGSGTWYASWAKGRFTISKTSTTVALRITSPTTEDTATYFCSRQYNPMDLWGPGTLVTVSS
VL: DMTQTPASVEAAVGGTVTIKCQASQNIGSNLAWYQQKPGQRPKLLIYSASTLASGVPSRFKGSGSGTQFTLTISGVQCDDAATYYCQQGYSVGNVNNAFGGGTEVVVK
In the case of B11, the EC50 in test [1] was 0.135 µg/mL. For the same molecule, the IC50 with human RANKL protein [5] is 0.0508 µg/mL.

B12: clone 220 rabbit anti-RANKL antibody (antibody, V domains shown)
VH: QSLEESGGRLVTPGTPLTLTCTVSGFSLSKYEINWVRQAPGKGLEWIGYIDVGSGTWYASWAKGRFTISKTSTTVALRITSPTTEDTATYFCSRQYNPMDLWGPGTLVTVSS
VL: DMTQTPASVEAAVGGTVTIKCQASQNIGSNLAWYQQKPGQRPKLLIYSASTLASGVPSRFKGSGSGTQFTLTISGVQCDDAATYYCQQGYSVGNVNNAFGGGTEVVVK
B12 gave an EC50 in test [1] of 0.153 µg/mL. For the same molecule, the 50% inhibitory concentration (IC50) in the test with human RANKL protein [5] came out at 0.0648 µg/mL.

B13: clone 227 rabbit anti-RANKL antibody (antibody, V domains shown)
VH: QSLEESGGRLVKPDETLTLTCTVSGFSLYNYEINWVRQAPGKGLEWIGYIDVGSGTWYASWAKGRFTISKTSTTVDLKITSPTTEDTATYFCTRKYNPMDLWGPGTLVTVSS
VL: DMTQTPASVEVAVGGTVTIKCQASQNIGSNLAWYQQKPGQPPKLLIYSTSTVASGVPSRFKGSGFGTQFTLTISGVQCDDAATYYCQQGYSAGNVNNPFGGGTEVVVK
As to B13, the EC50 in test [1] was 0.0858 µg/mL. Further, the IC50 with human RANKL protein [5] was 0.0643 µg/mL.

B14: clone 270 rabbit anti-RANKL antibody (antibody, V domains shown)
VH: QSVEESGGRLVTPGTPLTLTCTVSGFSLSSDVMSWVRQAPGKGLDWIGYIWSGGRPYYANWAKGRFTISKSSSTTVDLKITSPTTEDTAAYFCARGFGSSGLNIWGPGTLVTVSL
VL: DMTQTPASVEVAVGGTVTIKCQASQNIGYNLAWYQQKPGQPPKLLIYGASTLASGVPSRFKGSGSGTQFTLTISGVQCDDAATYYCQQGYSVSNIDNAFGGGTEVVVK
In test [1], B14 came in with an EC50 of 0.0751 µg/mL. The IC50 with human RANKL protein [5] is 0.058 µg/mL.

B15: clone 130 rabbit anti-RANKL antibody (antibody, V domains shown)
VH: QSVEESGGRLVTPGTPLTLTCTVSGFSLSSGVVSWVRQAPGKGLEWIGYAWSGGATYYASWAKGRFTISKSSTTVDLKITSPTTADTATYFCARGYNGMDPWGPGTLVTVSS
VL: DMTQTPASVEVAVGGTVTIKCQASQNIGSNLAWYQQKPGQPPKLLIYKASTLASGVPSRFRGSGSGTEFTLAISDLECADAATYYCQQGYTTKDLVNPFGGGTEVVVK
The molecule B15 showed an EC50 in test [3] of 0.21 µg/mL. This molecule also showed an IC50 in the test with human RANKL protein [4] of 0.078 µg/mL.

B16: clone 147 rabbit anti-RANKL antibody (antibody, V domains shown)
VH: QSVEESGGRLVTPGTPQTLTCTVSGFSLSTDVVSWVRQAPGKGLEWIGYTWNGGATYYASWAKGRFTFSKTSTTVDLKITSPTTEDTATYFCARGYNGMDPWGPGTLVTVSS
VL: DMTQTPASVEVAVGGTVTIKCQASQNIGSNLAWYQQKPGQPPKLLISKASTLASGVPSRFKGSGSGTEFTLAISDLECADAATYYCQQGYTTKNVVNPFGGGTEVVVK
B16 came in with an EC50 in test [3] of 0.0721 µg/mL. The IC50 in the test with human RANKL protein [4] was 0.0706 µg/mL.
